Data taken from US6762290.

What was measured:
[1] = target: VEGFR2 (KDR) extracellular domain/Fc (Homo sapiens) (UniProt P35968); assay: filter; settings: 2'-F pyrimidines
[2] = target: VEGFR1 (Flt-1) extracellular domain/Fc (UniProt P17948); assay: filter; settings: 2'-F pyrimidines; HBSMC, 37 C
[3] = target: VEGF receptors on HUVEC (VEGFR2/KDR) (Homo sapiens) (UniProt P35968); assay: competition; settings: 2'-F pyrimidines; inhibition of 125I-VEGF-165 binding to HUVEC
[4] = target: c-Met/Fc (UniProt P08581); assay: filter; settings: 2'-F pyrimidines
Chain of c-Met/Fc (P08581 25-932): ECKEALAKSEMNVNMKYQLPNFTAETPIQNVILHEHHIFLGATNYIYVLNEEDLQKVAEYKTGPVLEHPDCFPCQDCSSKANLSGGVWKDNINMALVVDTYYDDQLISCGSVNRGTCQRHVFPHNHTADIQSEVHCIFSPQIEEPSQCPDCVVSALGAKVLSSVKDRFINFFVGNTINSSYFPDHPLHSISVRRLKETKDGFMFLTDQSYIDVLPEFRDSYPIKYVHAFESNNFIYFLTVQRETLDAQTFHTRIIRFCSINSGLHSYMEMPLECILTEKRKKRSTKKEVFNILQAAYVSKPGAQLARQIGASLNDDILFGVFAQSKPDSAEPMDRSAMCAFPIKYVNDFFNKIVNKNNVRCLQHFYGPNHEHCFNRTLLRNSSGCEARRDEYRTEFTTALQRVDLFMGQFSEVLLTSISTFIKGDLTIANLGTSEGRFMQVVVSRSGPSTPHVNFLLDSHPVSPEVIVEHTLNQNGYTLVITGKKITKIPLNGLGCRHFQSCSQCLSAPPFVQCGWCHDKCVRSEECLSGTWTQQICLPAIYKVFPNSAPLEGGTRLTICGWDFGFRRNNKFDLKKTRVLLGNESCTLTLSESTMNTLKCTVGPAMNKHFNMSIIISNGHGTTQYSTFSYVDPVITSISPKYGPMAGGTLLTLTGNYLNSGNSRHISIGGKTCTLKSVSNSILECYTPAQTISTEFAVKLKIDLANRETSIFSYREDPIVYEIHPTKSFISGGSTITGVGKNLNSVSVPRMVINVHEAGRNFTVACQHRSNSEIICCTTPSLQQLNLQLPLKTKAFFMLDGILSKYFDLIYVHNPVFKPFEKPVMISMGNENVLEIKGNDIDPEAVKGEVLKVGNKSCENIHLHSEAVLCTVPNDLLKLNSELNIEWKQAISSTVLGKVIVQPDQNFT

Chain of VEGFR2 (KDR) extracellular domain/Fc (Homo sapiens) (P35968 20-764): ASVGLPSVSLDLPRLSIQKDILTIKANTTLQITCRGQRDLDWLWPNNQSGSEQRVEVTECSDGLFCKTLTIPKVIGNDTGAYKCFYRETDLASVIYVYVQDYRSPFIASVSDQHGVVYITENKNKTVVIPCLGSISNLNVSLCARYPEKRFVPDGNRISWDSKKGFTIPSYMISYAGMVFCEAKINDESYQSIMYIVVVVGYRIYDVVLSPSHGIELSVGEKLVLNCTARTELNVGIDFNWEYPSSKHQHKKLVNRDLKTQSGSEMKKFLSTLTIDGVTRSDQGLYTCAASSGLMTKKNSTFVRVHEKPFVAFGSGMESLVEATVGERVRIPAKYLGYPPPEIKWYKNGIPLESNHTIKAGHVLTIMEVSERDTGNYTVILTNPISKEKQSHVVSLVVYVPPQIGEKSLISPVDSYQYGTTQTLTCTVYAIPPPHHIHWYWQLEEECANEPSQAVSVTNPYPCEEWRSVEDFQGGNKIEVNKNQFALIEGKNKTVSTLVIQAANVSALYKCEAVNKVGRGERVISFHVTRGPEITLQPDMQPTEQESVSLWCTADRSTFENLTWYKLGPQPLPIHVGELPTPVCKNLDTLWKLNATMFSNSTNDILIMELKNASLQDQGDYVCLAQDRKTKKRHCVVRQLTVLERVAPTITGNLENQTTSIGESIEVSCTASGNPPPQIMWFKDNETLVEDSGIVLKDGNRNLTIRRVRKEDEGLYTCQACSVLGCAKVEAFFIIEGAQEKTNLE
Chain of VEGFR1 (Flt-1) extracellular domain/Fc (P17948 27-758): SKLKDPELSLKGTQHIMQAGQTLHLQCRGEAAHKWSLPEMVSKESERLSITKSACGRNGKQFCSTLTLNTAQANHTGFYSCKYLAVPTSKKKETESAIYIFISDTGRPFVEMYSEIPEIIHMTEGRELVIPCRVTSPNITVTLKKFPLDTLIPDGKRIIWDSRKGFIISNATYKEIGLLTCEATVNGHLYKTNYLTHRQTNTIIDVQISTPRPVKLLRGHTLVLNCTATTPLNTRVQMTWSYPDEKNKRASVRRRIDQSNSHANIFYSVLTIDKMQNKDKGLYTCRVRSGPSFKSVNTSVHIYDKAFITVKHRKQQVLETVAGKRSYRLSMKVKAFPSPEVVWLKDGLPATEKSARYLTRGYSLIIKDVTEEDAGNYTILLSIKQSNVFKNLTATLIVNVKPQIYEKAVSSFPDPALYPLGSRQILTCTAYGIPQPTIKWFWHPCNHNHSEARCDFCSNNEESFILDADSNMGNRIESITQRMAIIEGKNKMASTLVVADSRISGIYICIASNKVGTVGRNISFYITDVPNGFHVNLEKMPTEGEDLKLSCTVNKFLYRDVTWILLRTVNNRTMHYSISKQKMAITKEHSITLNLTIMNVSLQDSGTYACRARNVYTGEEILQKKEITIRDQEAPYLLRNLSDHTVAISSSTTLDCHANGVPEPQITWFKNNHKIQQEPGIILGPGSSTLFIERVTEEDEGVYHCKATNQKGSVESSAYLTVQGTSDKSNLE
Chain of VEGF receptors on HUVEC (VEGFR2/KDR) (Homo sapiens) (P35968 20-1356): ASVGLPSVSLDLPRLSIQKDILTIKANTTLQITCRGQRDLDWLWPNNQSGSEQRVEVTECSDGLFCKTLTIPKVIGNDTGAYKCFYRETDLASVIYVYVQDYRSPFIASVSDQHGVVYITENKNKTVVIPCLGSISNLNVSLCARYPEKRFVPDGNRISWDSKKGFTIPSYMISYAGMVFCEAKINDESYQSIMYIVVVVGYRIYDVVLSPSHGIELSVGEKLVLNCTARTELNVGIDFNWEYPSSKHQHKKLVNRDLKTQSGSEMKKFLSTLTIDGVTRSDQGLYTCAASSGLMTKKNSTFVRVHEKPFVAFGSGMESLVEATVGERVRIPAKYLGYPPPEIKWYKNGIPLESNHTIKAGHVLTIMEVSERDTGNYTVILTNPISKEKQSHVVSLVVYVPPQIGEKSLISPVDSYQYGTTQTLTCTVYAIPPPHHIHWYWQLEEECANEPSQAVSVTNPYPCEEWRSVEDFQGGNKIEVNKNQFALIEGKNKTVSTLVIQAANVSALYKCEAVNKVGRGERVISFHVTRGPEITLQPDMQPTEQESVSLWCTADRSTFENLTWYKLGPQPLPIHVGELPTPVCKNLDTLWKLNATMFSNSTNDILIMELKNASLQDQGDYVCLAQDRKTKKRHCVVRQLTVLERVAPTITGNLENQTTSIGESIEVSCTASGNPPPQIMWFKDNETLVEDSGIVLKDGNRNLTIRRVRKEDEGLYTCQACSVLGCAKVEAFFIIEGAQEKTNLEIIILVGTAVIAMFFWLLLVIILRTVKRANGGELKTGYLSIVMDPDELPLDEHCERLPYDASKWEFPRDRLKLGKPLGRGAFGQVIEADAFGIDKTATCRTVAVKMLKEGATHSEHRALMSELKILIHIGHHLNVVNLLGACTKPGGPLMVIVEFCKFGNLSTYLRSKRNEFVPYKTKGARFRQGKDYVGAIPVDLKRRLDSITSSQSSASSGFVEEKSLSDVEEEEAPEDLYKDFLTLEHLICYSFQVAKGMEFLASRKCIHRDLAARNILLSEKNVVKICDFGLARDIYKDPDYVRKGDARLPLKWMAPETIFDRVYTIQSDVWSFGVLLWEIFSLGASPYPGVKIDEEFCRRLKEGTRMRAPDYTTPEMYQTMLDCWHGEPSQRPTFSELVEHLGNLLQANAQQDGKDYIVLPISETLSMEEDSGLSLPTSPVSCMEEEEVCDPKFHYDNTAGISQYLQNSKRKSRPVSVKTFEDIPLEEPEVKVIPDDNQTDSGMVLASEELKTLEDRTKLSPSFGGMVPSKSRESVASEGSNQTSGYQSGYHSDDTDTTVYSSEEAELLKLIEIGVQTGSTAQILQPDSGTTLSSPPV

“GGGAGGACGAUGCGGNNNNNNNNNNNNNNNNNNNNNNNNNNNNNNNNNNNNNNNNCAGACGACUCGCCCGA [KDR SELEX round 3 pool]” was tested, and the Kd ([1]; HBSMC, 37 C) was 0.8 nM.

“GGGAGGACGAUGCGGNNNNNNNNNNNNNNNNNNNNNNNNNNNNNNNNNNNNNNNNCAGACGACUCGCCCGA [KDR SELEX round 6 pool]” gave a Kd ([1]; HBSMC (Mg, Ca), 37 C) of 0.44 nM.

“GGGAGGACGAUGCGGNNNNNNNNNNNNNNNNNNNNNNNNNNNNNNNNNNNNNNNNCAGACGACUCGCCCGA [Flt-1 SELEX round 5 pool]” showed a Kd [2] of 0.093 nM.

“GGGAGGACGAUGCGGAUCAUACCGGGUCAUAACACCGNUCACGGGGCCUUNUCGUCAGACGACUCGCCCGA [K24]” showed a Kd ([1]; circularly permuted family member) of 0.97 nM.

“GGGAGGACGAUGCGGNNNNNNNNNNNNNNNNNNNNNNNNNNNNNNNNNNNNNNNNCAGACGACUCGCCCGA [KDR SELEX round 2 pool]” showed a Kd ([1]; HBSMC, 37 C) of 0.68 nM.

“GGGAGGACGAUGCGGAGCACUUGACCCACNACCAGAAAGCCAGCCCAGACGACUCGCCCGA [K6]” showed a Kd ([1]; 30N clone) of 0.98 nM.

With “GGGAGGACGAUGCGGACANAUAACACAGGGCCUGCUUGGAUCACACUGAUUGCGCCCAGACGACUCGCCCGA [K17]” the IC50 [3] was 163 nM and the Kd [1] was 0.24 nM.

For “GGGAGGACGAUGCGGNNNNNNNNNNNNNNNNNNNNNNNNNNNNNNNNNNNNNNNNCAGACGACUCGCCCGA [40N7 starting random library (round 0)]”, the Kd [2] was 0.2 nM, the Kd ([4]; specificity control) was 58 nM and the Kd ([1]; HBSMC, 37 C) was 36 nM. It also gave a Kd ([1]; as printed, differs from 36 ± 3 nM in Table 1 legend) of 361 nM.

For “GGGAGGACGAUGCGGNNNNNNNNNNNNNNNNNNNNNNNNNNNNNNNNNNNNNNNNCAGACGACUCGCCCGA [KDR SELEX round 4 pool]”, the Kd ([1]; HBSMC, 37 C) was 0.581 nM.

Work on “GGGAGGACGAUGCGGNNNNNNNNNNNNNNNNNNNNNNNNNNNNNNNNNNNNNNNNCAGACGACUCGCCCGA [KDR SELEX round 5 pool]” yielded a Kd ([4]; specificity control for Fc binding) of 74 nM, a Kd ([1]; HBSMC, 37 C) of 0.83 nM and a Kd ([1]; comparison with cMet/Fc) of 0.76 nM.
